Columns and labels:
[1] = system: PU.1 expression in sorted HSC; assay: Quantitative RT-PCR of PU.1 expression in sorted HSC in culture; format: cell-based, mice; conditions: 16 h in culture with cytokine, 100 ng/ml
Protocol: CD150+CD34− KSLF HSC or CD150+CD34− CD48− KSLF HSC (single cells) were sorted into S-clone SF-03 medium (Sanko Jyunyaku) with 10% FBS supplemented with 100 U/ml penicillin and […] streptomycin (both Invitrogen) and cultivated in uncoated U-Shape 96 well plates (Greiner) in 100 μl SCM, 20 ng/ml rSCF, 50 ng/ml rTPO+/−100 ng/ml rM-CSF or 100 ng/ml rGM-CSF or 100 ng/ml rG-CSF. All cytokines were murine and from PeproTech. Cell viability was analyzed by AnnexinV and Propidium iodide FACS staining^35.
Total RNA was isolated and reverse transcribed with μMACS™ ONE-STEP T7 template kit (Miltenyi Biotec) and analysed by quantitative real-time PCR using TAQMAN® Universal PCR Master Mix and a 7500 Fast Real Time PCR System sequence detection system (both Applied Biosystem), following the manufacturers' instructions.

Pseudomonas aeruginosa [2] = assay: Survival after Pseudomonas aeruginosa infection following HS/PC transplantation; format: in vivo, mice; conditions: P. aeruginosa infection on Day8 after irradiation and HS/PC transplantation; three injections of 10 μg M-CSF
Protocol: (§1) To study the functional impact of MCSF mediated HSC commitment during infections, two separate series of experiments were performed. In all experiments, after lethal irradiation of recipients, 2500 HS/PC with 200,000 cKit-carrier cells from donors were grafted.
(§2) Uninfected mice that received HS/PC transplants served as controls for efficient life saving transplantation (black line; FIGS. 8A, 8B and FIGS. 10A, 10B; n=8). Two other groups of mice received either 3 injections of MCSF (rhMCSF or Bacculo virus produced mMCSF) or PBS on the day of HS/PC transplantation.
(§3) One-week post transplantation these mice were challenged with lethal doses of either the bacteria Pseudomonas aeruginosa or the opportunistic fungus Aspergillus fumigatus.
CD45.1 and C57Bl/6 mice were obtained from Charles River. 10-14 weeks old sex-matched CD45.2 recipients were reconstituted as described^3 with bone marrow derived KSL (c-Kit(CD117)+, Sca+, Lin−) HS/PC isolated from 6-8 weeks old CD45.1. For in vivo injections the indicated concentrations of M-CSF and/or sorted cells were injected in 100-200 μl of PBS into the retro-orbital sinus. For HS/PC transplantation 2500 KLS HS/PC were sorted from CD45.1 mice and mixed with 200,000 cKit− CD45.2 or cKit−, Terr119+ carrier cells prior to injection into lethally irradiated (160 kV, 25 mA, 6.31 Gy) CD45.2 recipient mice. […]

Aspergillus fumigatus [3] = assay: Survival after Aspergillus fumigatus infection following HS/PC transplantation; format: in vivo, mice; conditions: A. fumigatus infection on D8 after irradiation and HS/PC transplantation; three injections of 10 μg M-CSF
Protocol: as §1, §2, §3
Each mouse received three injections of 10 μg M-CSF: 1 h before HS/PC transplantation; 6 h and 18 h post-transplantation. Human M-CSF (rhMCSF, Chiron Corporation Inc., USA, now part of Novartis AG) and Mouse M-CSF was expressed in baculovirus (Bac. virus mMCSF^56) were used for the study.
Aspergillus fumigatus FGSC 1100 was provided by the Centre International de Ressources Microbiennes—Champignons Filamenteux (CIRM-CF, Marseille, France). For each experiment, cultures were grown on Malt agar medium (2% malt extract, 2% Bacto-agar DIFCO) for 5 days at 25° C. Conidial suspension was prepared in sterile saline according to Bitmansour et al. (2002)^55. […]

Pseudomonas aeruginosa [4] = assay: Bacterial tissue load quantification; format: in vivo, mice; conditions: 18 h after infection
Protocol: The infected mice were killed; the organs (spleen, lungs, liver and heart) were harvested and weighed. To determine CFUs per gram of tissue serial dilutions of tissue homogenates were prepared in PBS and plated on Pseudomonas Isolation Agar (PIA) (Difco laboratories) supplemented with appropriate antibiotics and incubated overnight at 37° C. The colonies were counted after 16-24 h.
For analysis of bacterial load, mice were killed at 18 h after infection, tissue homogenates were prepared from spleen, lungs, liver and heart, and were plated to determine CFU.

Aspergillus fumigatus [5] = assay: Fungal culture of infected organs; format: in vivo; conditions: lungs, liver and heart; 48 h after infection; versus untreated mice
Protocol: The organs (lungs, liver, heart and spleen) were harvested, weighed and tissue homogenates were prepared in PBS. The homogenates were serially diluted and 200 μL or each dilution was plated on Sabouraud dextrose agar (DIFCO). The plates were incubated at 25° C. and pictures were taken after 3-5 days.
Furthermore in the mice succumbing to infection death was slightly delayed from D9-D14 in untreated mice to D10-D15 in the rhMCSF treated group. For analysis of fungal load, mice were killed at 48 h after infection and tissue homogenates were prepared from lungs, liver and heart. […] Fungal tissue cultures were incubated beyond 96 h to verify the typical colony morphology of A. fumigatus.

B1: G-CSF: murine granulocyte colony-stimulating factor from PeproTech (protein, UniProt P09920 31-208, looked up)
Granulocyte …: VPLVTVSALPPSLPLPRSFLLKSLEQVRKIQASGSVLLEQLCATYKLCHPEELVLLGHSLGIPKASLSGCSSQALQQTQCLSQLHSGLCLYQGLLQALSGISPALAPTLDLLQLDVANFATTIWQQMENLGVAPTVQPTQSAMPAFTSAFQRRAGGVLAISYLQGFLETARLALHHLA
PU.1 expression in FACS purified HSC [1]: not

B2: mouse MCSF: Mouse M-CSF expressed in baculovirus (protein, UniProt P07141 33-552, looked up)
Macrophage colony-stimulating …: KEVSEHCSHMIGNGHLKVLQQLIDSQMETSCQIAFEFVDQEQLDDPVCYLKKAFFLVQDIIDETMRFKDNTPNANATERLQELSNNLNSCFTKDYEEQNKACVRTFHETPLQLLEKIKNFFNETKNLLEKDWNIFTKNCNNSFAKCSSRDVVTKPDCNCLYPKATPSSDPASASPHQPPAPSMAPLAGLAWDDSQRTEGSSLLPSELPLRIEDPGSAKQRPPRSTCQTLESTEQPNHGDRLTEDSQPHPSAGGPVPGVEDILESSLGTNWVLEEASGEASEGFLTQEAKFSPSTPVGGSIQAETDRPRALSASPFPKSTEDQKPVDITDRPLTEVNPMRPIGQTQNNTPEKTDGTSTLREDHQEPGSPHIATPNPQRVSNSATPVAQLLLPKSHSWGIVLPLGELEGKRSTRDRRSPAELEGGSASEGAARPVARFNSIPLTDTGHVEQHEGSSDPQIPESVFHLLVPGIILVLLTVGGLLFYKWKWRSHRDPQTLDSSVGRPEDSSLTQDEDRQVELPV
survival (Pseudomonas aeruginosa [2]): 87.5%
survival (Aspergillus fumigatus [3]): 60%

B3: GM-CSF: murine granulocyte-macrophage colony-stimulating factor from PeproTech (protein, UniProt P01587 18-141, looked up)
Granulocyte-macrophage …: APTRSPITVTRPWKHVEAIKEALNLLDDMPVTLNEEVEVVSNEFSFKKLTCVQTRLKIFEQGLRGNFTKLKGALNMTASYYQTYCPPTPETDCETQVTTYADFIDSLKTFLTDIPFECKKPGQK
PU.1 expression in FACS purified HSC [1]: not

B4: rhMCSF: Human M-CSF (rhMCSF, Chiron Corporation Inc., USA, now part of Novartis AG) (protein, UniProt P09603 33-554, looked up)
Macrophage colony-stimulating …: EEVSEYCSHMIGSGHLQSLQRLIDSQMETSCQITFEFVDQEQLKDPVCYLKKAFLLVQDIMEDTMRFRDNTPNAIAIVQLQELSLRLKSCFTKDYEEHDKACVRTFYETPLQLLEKVKNVFNETKNLLDKDWNIFSKNCNNSFAECSSQDVVTKPDCNCLYPKAIPSSDPASVSPHQPLAPSMAPVAGLTWEDSEGTEGSSLLPGEQPLHTVDPGSAKQRPPRSTCQSFEPPETPVVKDSTIGGSPQPRPSVGAFNPGMEDILDSAMGTNWVPEEASGEASEIPVPQGTELSPSRPGGGSMQTEPARPSNFLSASSPLPASAKGQQPADVTGTALPRVGPVRPTGQDWNHTPQKTDHPSALLRDPPEPGSPRISSLRPQGLSNPSTLSAQPQLSRSHSSGSVLPLGELEGRRSTRDRRSPAEPEGGPASEGAARPLPRFNSVPLTDTGHERQSEGSFSPQLQESVFHLLVPSVILVLLAVGGLLFYRWRRRSHQEPQRADSPLEQPEGSPLTQDDRQVELPV
survival (Pseudomonas aeruginosa [2]): 50%
moribund mice (Pseudomonas aeruginosa [4]): two to three of the 10 mice
tissue load of bacteria (Pseudomonas aeruginosa [4]; spleen, lungs, liver and heart, versus untreated mice): significant decrease
survival (Aspergillus fumigatus [3]): 40%
tissue load of fungal colonies (Aspergillus fumigatus [5]): significant decrease
